# Assay results as given in publication PMC3782484.
# Legend:
# [1] = molecular target: 5pGST, recombinant FbsA fragment 5p (one repeat) fused to GST (Streptococcus agalactiae strain COH1); test: ELISA; 5pGST or 6pGST (500 ng/well) coated overnight at 4°C in 0.1 M carbonate buffer, blocked with 2% BSA, increasing amounts of human Fng; detected with mouse anti-human Fng IgG and peroxidase-conjugated rabbit anti-mouse IgG
# [2] = molecular target: 6pGST, recombinant FbsA fragment 6p (five repeats) fused to GST (Streptococcus agalactiae strain COH1); test: as above
# [3] = molecular target: 5pGST, recombinant FbsA fragment 5p (one repeat) fused to GST (Streptococcus agalactiae strain COH1); test: SPR; BIAcore X; 5pGST or 6pGST (500 nM) captured on immobilized goat anti-GST antibody, GST alone in the reference cell; human Fng flowed at 2.92 nM to 750 nM, 20 µl/min; equilibrium analysis
# [4] = molecular target: 6pGST, recombinant FbsA fragment 6p (five repeats) fused to GST (Streptococcus agalactiae strain COH1); test: as above
substance,measurement,setting,value
Human fibrinogen (from UniProt P02671 36-866; P02675 45-491; P02679 27-453) (complex),EC50,[1],31.2 nM
same,EC50,[2],63 nM
same,Kd,[3],27.5 nM
same,Kd,[4],23 nM
